Source: patent US20160030526A1

Assays:
[1] = biological target: human CD25 (human IL-2 receptor) on human CD25+ T-cell lymphoma cells HUT 102/6TG (human) (UniProt P01589); test: cell-based or functional assay
[2] = biological target: human CD25 (human IL-2 receptor) on human CD25+ T-cell lymphoma cells HUT 102/6TG (human) (UniProt P01589)
[3] = biological target: human CD25 (human IL-2 receptor) on human CD25+ T-cell lymphoma cells HUT 102/6TG (human) (UniProt P01589); test: flow cytometry on HUT 102/6TG cells

human CD25 (human IL-2 receptor) on human CD25+ T-cell lymphoma cells HUT 102/6TG (human), sequence (P01589 22-272): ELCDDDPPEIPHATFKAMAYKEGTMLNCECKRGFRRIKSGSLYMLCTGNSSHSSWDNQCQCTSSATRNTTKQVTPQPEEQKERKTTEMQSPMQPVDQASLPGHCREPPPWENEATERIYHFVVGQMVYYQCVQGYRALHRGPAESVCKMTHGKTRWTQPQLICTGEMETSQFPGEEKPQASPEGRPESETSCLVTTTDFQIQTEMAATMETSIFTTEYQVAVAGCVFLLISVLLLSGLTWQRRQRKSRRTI

Substance	IC50 of protein synthesis inhibition (3H-leucine) in HUT 102/6TG cells [1]	Kd [2]	affinity against the monovalent isoform (DT390-hIL-2) [3]
bivalent human IL-2 fusion toxin (DT390-bi-hIL-2-6xHis)	0.2 pM		
bivalent human IL-2 fusion toxin (DT390-bi-hIL-2-6xHis) (other; other documents disagree on this pair)		210 pM	2 logs
monovalent human IL-2 fusion toxin (DT390-hIL-2-6xHis)	20 pM		
monovalent human IL-2 fusion toxin (DT390-hIL-2-6xHis) (other; other documents disagree on this pair)		15900 pM	
